Results from paper PMC3694296, “11β-Hydroxysteroid dehydrogenase type 1 contributes to the balance between 7-keto- and 7-hydroxy-oxysterols in vivo” (Biochemical Pharmacology, 2013).

Experiments:
[1] = substrate: C[C@]12C[C@H](O)[C@H]3[C@@H](CCC4=CC(=O)CC[C@@]43C)[C@@H]1CC[C@@H]2C(=O)CO; experiment: oxidation kinetics (Km) with recombinant enzyme, HPLC; format: biochemical, Mus musculus; settings: NADP+
[2] = substrate: C[C@]12CC(=O)[C@H]3[C@@H](CCC4=CC(=O)CC[C@@]43C)[C@@H]1CC[C@@H]2C(=O)CO; experiment: reduction kinetics (Km) with recombinant enzyme, HPLC; format: biochemical, Mus musculus; settings: NADPH

B1: 11β-hydroxysteroid dehydrogenase type 1 (murine 11βHSD1, m11βHSD1) (Mus musculus) (protein)
chain: NEEFRPEMLQGKKVIVTGASKGIGREMAYHLSKMGAHVVLTARSEEGLQKVVSRCLELGAASAHYIAGTMEDMTFAEQFIVKAGKLMGGLDMLILNHITQTSLSLFHDDIHSVRRVMEVNFLSYVVMSTAALPMLKQSNGSIAVISSLAGKMTQPMIAPYSASKFALDGFFSTIRTELYITKVNVSITLCVLGLIDTETAMKEISGIINAQASPKEECALEIIKGTALRKSEVYYDKSPLTPILLGNPGRKIMEFFSLRYYNKDMFVSN
notes: truncated form of recombinant m11βHSD1 protein (N23Δ)
In the case of B1, the Km [1] is reported as 1.78 ± 0.56 µM, the Vmax [1] is reported as 4.82 ± 0.65 pmol/µg/min and the Vmax/Km [1] is reported as 2.7 L/ug/min x 10^-6. For the same protein, the Km [2] was 0.20 ± 0.25 µM, the Vmax [2] was 8.56 ± 4.06 pmol/µg/min and the Vmax/Km [2] was 42.8 L/ug/min x 10^-6.
